The experiment has as its target full-length N1-CA09-WT, membrane-anchored, C-terminal myc tag (Influenza A virus A/California/07/2009 …, UniProt C7FH46, strain). Kind of experiment: flow cytometry on cells. The following applies: one partner purified. For orientation: A flow cytometer gives signals particle by particle.

B1: CD6 IgG (antibody, V domains shown)
VH: QVKLQESGGGLVQPKGSLKLSCAASGFTFNTYAMNWVRQAPGKGLEWVARIRSKSNNYATFYADSVKDRFTISRDDSQSMLYLQMHNLKTDDTAMYYCVRPSIYYYASGYLDVWGAGTTVTVSS
VL: QIVLSQSPAILSASPGEKVTMTCRTSSSVSYMHWYQQKPGSSPKPWIYATSNLASGVPFRFSGSGSGTSYSLTISRVEAEDAATYYCQQWNSNPPTFGGGTKLEIK
notes: copies: 2 + 2
Take B1: the binding result was “binds”.
